From the DeepSol protein solubility set

Assay: soluble on expression in E. coli; label from the status in PepcDB or PDB records
With “MEHIYKLLRSFKWDCAKYLYKNTLNFKVKRLRRKKNIRVLFAVAESATWKSDCLYKAMAEHPRFTPSILVLPDEQKEKTLLKEEVDSCFNLFCRKGYACTYPYQNGKLINIRKKLKPDIIFYQKPYTFYPKSLLYYKNMNALFCYTNYAFHSLLTDWANDNEFFRLMWQNYYENESANVDLKKKFAGIFSNIVVTGLPVTDLFLTEKHEDKWKKTDKSRKRIIWAPHFSISDGGCLNYSTFLSIAEELLEFIKNTQLPVQMAFKPHPLLKSQLYNYSSWGKEKTDEYYAAWEFLPNAQLETNEYVDLFMTSDAMIHDCGSFTIEYHHTLKPVMYLVNGKEHTATMNSFAKAAYDLHYKGQTIQDIRNFIECTVLENSDYLLEKRKNFFKSYLLPPHNQSATENIIHAILGTGYYTEKKQR” the “soluble on expression in E. coli” value was “not soluble”. In the case of “MEHLFGKWLPDLPAAISDGISLPMVRLLHTRSLTAALRALPHTFSVELLKLGELETECGGRLVREVLLKLDRIPVVEARSECRIGSAFWQNILDCGTRPLGERLFQADLEGARSAFEFAVAGEGCGRYFAARRSRFSRHGEEMLLTEYFLPELKRFIG”, the “soluble on expression in E. coli” value is reported as “not soluble”. In the case of “MEHWYCTNMVGVPVGLIGSTAFNRCLRRITIHGTRETHPGLFRLLAACEYPATASEVFEHYMELEFGLAPGAHEPTQARYPTSYLDLLRGWGVESDCPKAAVLKGWVESRFGLVPTFHKQRLGLFPSSAWATYLQEKTDVRFHNNCIFQQFDLLYEYCQWSIRRFKTPGPRFVRLWRGTNDVEQQLVEGDARQRLCTVRLNNLVSFSDSKERAEEFGDWVLETEVPTVKLLFFPGLLQRQVLGYEGEFLVIGGNYKVRAYHGWFLEHHHHHH”, the “soluble on expression in E. coli” value is reported as “soluble”. In the case of “MEILASRMLLRPADYQRSLSFYRDQIGLAIAREYGAGTVFFAGQSLLELAGYGEPDHSRGPFPGALWLQVRDLEATQTELVSRGVSIAREPRREPWGLHEMHVTDPDGITLIFVEVPEGHPLRTDTRA”, the “soluble on expression in E. coli” value is reported as “soluble”. In the case of “MEIPVIEPLFTKVTEDIPGAAGPVFDKNGDFYIVAPYVEVNGKPAGEILRIDLKTGKKTVICKPEVNGYGGIPIGCQCDRDANQLFVADMRLGLLVVQTDGTFEEIAKKDSEGRRMQGCAYCAFDYEGNLWITAPAGEVAPADFTISLQEKFGSIYCFTTDGQMIQVDTAFQAPAGIAVRHMNDGRPYQLIVAEQPTKKLWSYDIKGPAKIENKKVWGHIPGTHKGGAAGMDFDEDNNLLVANWGSSHIEVFGPDGGQPKMRIRCPFEKPSALHFKPQTKTIFVTEHENNAVWKFEWQRNGKKQYCETLKFGIFGSLEHHHHHH”, the “soluble on expression in E. coli” value is reported as “soluble”. With “MEIQFLGTGAGQPAKARNVSSLVLKLLDELNEIWMFDCGEGTQRQILETTIKPRKIRKIFITHLHGDHVFGLPGFLSSRAFQANDEQTDVDIYGPVGIKHLVMASIRTSGAHLPYHIHFHEFDAKHLGKILETDKFMVYAEKLDHTIFCVGYRVVQKDLEGTLDAEKLKAAGLPFGPLFGRVKNGQDVVLEDGTTIIAKDYISAPKKGKVITILGDTRKTDASIRLALGADVLVHESTYSKGDENLARRHGHSTNTEAARVAKAASVKKLLLNHISARFLSHDISRMRDDAQEIFTDVHIVRDLEEVKLLEHHHHHH” the “soluble on expression in E. coli” value was “not soluble”. In the case of “MEIRVKCRCGEEECSEWAIVELQGVVETQASFQGSIQNLEIGRLCHSDSSQGTYTFTVGYHELVGSKVTLKKPLLVLKKLQFDEVSGKATELEVVGIIRTKILFKTRPKPLISGNNNLSLFCS”, the “soluble on expression in E. coli” value is reported as “not soluble”. With “MEIVYKPLDIRNEEQFASIKKLIDADLSEPYSIYVYRYFLNQWPELTYIAVDNKSGTPNIPIGCIVCKMDPHRNVRLRGYIGMLAVESTYRGHGIAKKLVEIAIDKMQREHCDEIMLETEVENSAALNLYEGMGFIRMKRMFRYYLNEGDAFKLILPLTEKSCTRSTFLMHGRLAT” the “soluble on expression in E. coli” value was “not soluble”. For “MEKEAFMEKLLSFMKEEAYKPLTVQELEEMLNITEAEEFKELVKALVALEEKGLIVRTRSDRYGIPEKMNLIKGKISAHAKGFAFLLPEDTSLSDVFIPPNELNTAMNGDIVMVRLNSQSSGSRQEGTVIRILERAIQRVVGTYTETRNFGFVIPDDKKITSDIFIPKNGKNGAAEGHKVVVKLTSYPEGRMNAEGEVETILGHKNDPGIDILSVIHKHGLPGEFPADAMEQASSTPDTIDEKDLKDRRDLRDQVIVTIDGADAKDLDDAVTVTKLDDGSYKLGVHIADVSHYVTENSPIDKEALERGTSVYLVDRVIPMIPHRLSNGICSLNPKVDRLTLSCEMTINSQGQVTEHEIFQSVIKTTERMTYSDVNKILVDDDEELKQKYEPLVPMFKDMERLAQILRDKRMDRGAVDFDFKEAKVLVDDEGAVKDVVIRERSVAEKLIEEFMLVANETVAEHFHWMNVPFIYRIHEEPNAEKLQKFLEFVTTFGYVVKGTAGNIHPRALQSILDAVRDRPEETVISTVMLRSMKQAKYDPQSLGHFGLSTEFYTHFTSPIRRYPDLIVHRLIRTYLINGKVDEATQEKWAERLPDIAEHTSSMERRAVDAERETDDLKKAEYMLDKIGEEFDGMISSVTNFGMFVELPNTIEGLVHVSFMTDDYYRFDEQHFAMIGERTGNVFRIGDEITVKVVDVNKDERNIDFEIVGMKGTPRRPRELDSSRSRKRGKPARKRVQSTNTPVSPAPSEEKGEWFTKPKKKKKKRGFQNAPKQKRKKKKLEHHHHHH”, the “soluble on expression in E. coli” value was “not soluble”. In the case of “MEKERETLQAWKERVGQELDRVMAFWLEHSHDREHGGFFTCLGRDGRVYDDLKYVWLQGRQVWMYCRLYRKLERFHRPELLDAAKAGGEFLLRHARVAPPEKKCAFVLTRDGRPVKVQRSIFSECFYTMAMNELWRVTAEARYQSEAVDMMDQIVHWVREDPSGLGRPQLPGAVASESMAVPMMLLCLVEQLGEEDEELAGRYAQLGHWCARRILQHVQRDGQAVLENVSEDGEELSGCLGRHQNPGHALEAGWFLLRHSSRSGDAKLRAHVIDTFLLLPFRSGWDADHGGLFYFQDADGLCPTQLEWAMKLWWPHSEAMIAFLMGYSESGDPALLRLFYQVAEYTFRQFRDPEYGEWFGYLNREGKVALTIKGGPFKGCFHVPRCLAMCEEMLSALLSRLA”, the “soluble on expression in E. coli” value is reported as “soluble”. In the case of “MEKGWKRADLHVHTTCSFDVLPAKDLNPLSLYEKSLEIGMDFVTFTDHDTVEAYEILGWDREKLTPGAEMTLYDPEFAGHTLHINVFELDREYFSELREIAEIEHDLKSFTGYLKRHRLPFVYNHPFWFEFHRQPNPSAVPKLAKLFPVLEYNMHELKQKNELTIALAERFGKSIVATTDTHTGKMGQVYTLAKGDSFREYFRNIEKGRNYIVTGDLTRELLIEEMNTWIDLIFEKSQKNRDIKNYLTGIKSLDALVKISRSTLLNYSPRLNRTAMNLFYMISNTGLPASFYIHSEKSFAREIEKDIEINNRK”, the “soluble on expression in E. coli” value is reported as “not soluble”. In the case of “MEKKKLTTAAGAPVVDNNNVITAGPRGPMLLQDVWFLEKLAHFDREVIPERRMFAKGSGAFGTFTVTHDITKYTRAKIFSEVGKKTEMFARFSTVAGERGAADAERDIRGFALKFYTEEGNWDMVGNNTPVFYLRDPLKFPDLNHIVKRDPRTNMRNMAYKWDFFSHLPESLHQLTIDMSDRGLPLSYRFVHGFGSHTYSFINKDNERFWVKFHFRCQQGIKNLMDDEAEALVGKDRESSQRDLFEAIERGDYPRWKLQIQIMPEKEASTVPYNPFDLTKVWPHADYPLMDVGYFELNRNPDNYFSDVEQAAFSPANIVPGISFSPDKMLQGRLFSYGDAHRYRLGVNHHQIPVNAPKCPFHNYHRDGAMRVDGNSGNGITYEPNSGGVFQEQPDFKEPPLSIEGAADHWNHREDEDYFSQPRALYELLSDDEHQRMFARIAGELSQASKETQQRQIDLFTKVHPEYGAGVEKAIKVLEGKDAK”, the “soluble on expression in E. coli” value is reported as “soluble”. For “MEKKKVAEWLAQGSIAVPKLLLGHYKQLGLGEGELVLLLHMQSFFEEGVLFPTPAELAERMTVSAAECMEMVRRLLQKGMIAIEEHTDEQGIRNEKYTLEPLWEKLVHHLYTQAAQQGELGRQEEEES”, the “soluble on expression in E. coli” value was “soluble”. For “MEKKPWEEDISIEEFKKSLNKDKITNLIIKRRWNKGKSTYHLSFNGDFEVVTKKPSTKYVTHKQLDQKLKEFKQDLMVELHDTFATKADLRDSEARINQKLEALVQVVLLHGEQINKLTQIVEKQGEQIRELQVEQKAQRQEFNARMDRLENLLVESIESTNKRFDSIEGRLDSMDSRLDSMENRLDSIEGRLDSVEGRLDSVEGRLDSMENRLDSMETRLDKIDPPK”, the “soluble on expression in E. coli” value was “soluble”. With “MEKSEGGDQPESAGEKEQVHQGADQQVQREKRRRSVSPDGGDVGSVKMADVVLEGASDVAVTKKRKITEEAAAAAKVNSEAITSATGPNTSTQAAASANEEDDKDKEDDKDAKKKKNRCGECRKKVGLTGFQCRCGGLYCAVHRYSDKHNCTFDYREHGAQEIRRNNPVVVGEKIQKILEHHHHHH” the “soluble on expression in E. coli” value was “not soluble”.
